Measured values: PMC7855293 (Nature structural & molecular biology, 2020)
Where two headings read alike, the source gives them in different places.

How the values were obtained:
Assay in all cases: cryo-EM structure
[1] = molecular target: RSP16 (Chlamydomonas reinhardtii)
[2] = molecular target: FAP385 (Chlamydomonas reinhardtii)
[3] = molecular target: LC8 (RSP22) (Chlamydomonas reinhardtii)
cryo-EM structure [4] = molecular target: the molecule itself
cryo-EM structure [5] = molecular target: the molecule itself; remark: listed apart in the source

In the case of RSP16 (natural protein), the stoichiometry N [1] is reported as 2.

FAP385 (natural protein) showed a stoichiometry N [2] of 2.

LC8 (RSP22) (natural protein) gave a stoichiometry N [3] of 2.

B1: RSP9 (natural protein, Chlamydomonas reinhardtii, UniProt Q27YU5 1-269, looked up)
chain: MVQLEPNITLVLKHLASCGAVVSAEQQAALDHSIPIKRIEAGLRSLTLWGRLTTLNGKDYLVAEGYNVASSKEGAAVYETKYFYSQDGARWSDLQPVDSETATRCARIKGMLSGDPAKNYELEEKDPNAPEPSPEAEEEVKPLVFQIPELAVLRCRVDAIATATSVIPTDSTILNAASQVVPNRLFAGAAYPEKLESYQHRFSLPGSGVTLSQDLRGTWAVQYDAFKGVAQVRSLLFPGYFFYYAANELTWGSLYVGDGLRNNDLIFML
In the case of B1, the “stoichiometry N” value (cryo-EM structure [4]) is reported as 2.

B2: p28 (natural protein, Chlamydomonas reinhardtii, UniProt Q39604 1-253, looked up)
chain: MIPPLSSLVRYDNPVLVSTSKDKGKGAKGTPGKKGALPPVEQKPGLTQTEDILNSILPPREWTEDGQLWVQYVSSTPATRLDVINLQEKLDQQLQQRQARETGICPIREELYAQTFDELIRQVTINCAERGLLLLRVRDEMRMTIAAYQTLYESAVAFGIRKALQTEQGKSEMESRITQLEGDVKDLERQVQEWKFKCEAIEKRESERREVEAKKHKDEVAYLENYAKQLKQQLETFLVPAKKGAPGAPAAAT
For B2, the “stoichiometry N” value (cryo-EM structure [5]) was 2.

B3: DRC4 (natural protein, Chlamydomonas reinhardtii, UniProt Q7XJ96 1-471, looked up)
chain: MAPKKKGTKKESKKDAVATGDIEGASVEELNQKIGTLEKEKNKEEEYRNYMQLERDKINAFWEITKKDLEDRRAELRNKDREMEEMEERHQVEIKVYKQKVKHLLYEHQNNITTLKSDGELALKLQQDEYRKREGDLGKDKRNLKLELKEQELAHQDIIRQLKLEHAKEITKLRQEFEQQAKDLQSKYEKKMKMLRDDMELRRKQEIHEIEERKNTHINELMKKHERAFAEIKNYYNDITHNNLDLIKTLKEDVAEMKRREAANEKLMYEIAQDNKKLSEPLSRALKEVELLRQQLANYDKDKLSLAQTKARLLNAERQIKNLEWENEVLSQRFSKVQTERDELYGKFEASIYDVQQKTGLKSALLEKKVEALGEALEMKEAQLAEVLTAANLDPGTLAAINQRLEEVLDNKNQIIKALQYDVAKVSKAHNDLIRVYEAKLTEFGIPVDELGFRPLVTNTSTGPAGLVVGA
In the case of B3, the “stoichiometry N” value (cryo-EM structure [5]) is reported as 2.
